From patent US20080063623A1 (INTEVERT INTERNATIONAL B V, published 2008)

Target: the molecule itself
Assay: transfection of COS-7 cells, non-denaturing Western blot of supernatants
Description: COS-7 cells were transfected with 1.5 μg of each cDNA construct using the Invitrogen Life Technologies Lipofectamine™ reagent (as described by the manufacturer) and cultured in 3-cm dishes with DMEM (without FCS and penicillin/streptomycin). After 8 h, transfected cells were washed and cultured in DMEM with penicillin/streptomycin and 10% FCS. After 72 h incubation at 37° C./5% C0₂ the cell culture supernatants were harvested and centrifuged at 13,000 rpm for 10 min at 4° C. to remove cell debris. The supernatants were analyzed via Western blotting and used immediately or stored at −70° C.
Cell culture supernatants from transfected COS-7 cells were size fractionated using 4-12% Nu-PAGE™ (Invitrogen) and blotted onto nitrocellulose filters (Schleicher & Schuell). Western blots were blocked in 3% skimmed milk (MPBS) in PBS, and subsequently incubated with a polyclonal antibody that was raised against a FeIL-12 p40 peptide diluted 1:300 in MPBS. Blocking and antibody incubation were each performed for 1 h at room temperature. After extensive washing (3 times 5 min), blots were incubated with alkaline peroxidase (AP)-conjugated goat anti-rabbit IgG antibodies (Sanbio) diluted 1:1000 in MPBS for 1 h at room temperature. After washing (3 times 5 min), bound AP-labeled secondary antibodies were visualized via staining. […]

B1: chicken IL-12 p40 subunit (ChIL-12 p40) (ligand)
chain: QWKLRENVYVIESEWNDETPAKKVKLTCDTSDEALPVYWKKGTELKGTGKTLTTEVKEFPDAGNYTCLSAKTHEIISYSFFLITKVDSNGQMIRSILKSYKEPSKTFLKCEAKNYSGIFTCSWMTENESPSVKFTIRSLKGSQGDVTCSSPVARTDKSVTEYTAQCQKENYCPFAEEHQPTEMFLEVIDEVEYENYTSSFFIRDIIKPDPPQCQYASTNGTVTWTYPKTWSTPKSYFPLTFRVKVESTKKYKSKVYDADEQSIQIPKTGPKDKISVQARDRYYNSSWSEWSTLCR
notes: also called chicken p40; clone pND89
B1: binds.
